Values quoted from earlier work in article PMC10601247.

How the values were obtained:
[1] = biological target: flotillin-1 (Homo sapiens) (UniProt O75955); experiment: SPR
[2] = biological target: flotillin-2 (Homo sapiens) (UniProt Q14254); experiment: SPR
Sequence of UniProt Q14254 (Q14254 2-428): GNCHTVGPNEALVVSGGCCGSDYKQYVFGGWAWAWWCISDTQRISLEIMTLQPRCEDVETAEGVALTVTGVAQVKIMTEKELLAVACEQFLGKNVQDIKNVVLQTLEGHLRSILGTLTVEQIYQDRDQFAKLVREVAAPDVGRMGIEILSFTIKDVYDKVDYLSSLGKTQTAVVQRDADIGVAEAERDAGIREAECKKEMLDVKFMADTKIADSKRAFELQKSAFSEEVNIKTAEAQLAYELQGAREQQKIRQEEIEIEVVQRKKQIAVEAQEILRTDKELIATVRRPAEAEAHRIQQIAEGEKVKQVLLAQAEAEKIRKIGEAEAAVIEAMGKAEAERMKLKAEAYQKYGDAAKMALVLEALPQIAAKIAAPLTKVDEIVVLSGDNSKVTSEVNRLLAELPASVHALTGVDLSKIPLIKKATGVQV

Sequence of UniProt O75955 (O75955 whole entry): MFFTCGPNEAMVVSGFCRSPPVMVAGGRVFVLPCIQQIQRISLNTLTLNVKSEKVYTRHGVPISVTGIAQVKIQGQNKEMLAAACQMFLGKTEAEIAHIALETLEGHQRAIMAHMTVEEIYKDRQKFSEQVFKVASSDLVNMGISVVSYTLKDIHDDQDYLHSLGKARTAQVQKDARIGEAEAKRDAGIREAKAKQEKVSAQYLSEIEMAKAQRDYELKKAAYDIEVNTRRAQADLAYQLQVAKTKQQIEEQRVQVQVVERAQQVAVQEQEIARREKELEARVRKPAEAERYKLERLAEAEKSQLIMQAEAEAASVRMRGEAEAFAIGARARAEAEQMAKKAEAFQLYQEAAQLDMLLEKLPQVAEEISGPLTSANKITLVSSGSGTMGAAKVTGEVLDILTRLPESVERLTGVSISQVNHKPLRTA

In the case of MPP1 (from UniProt Q00013), the Kd [1] is listed as 23 nM and the Kd [2] is listed as 31 nM.
